# Key:
# [1] = test system: streptozotocin-induced type 1 diabetic mice; experiment: Blood glucose in streptozotocin-induced type 1 diabetic mice; type: in vivo; settings: 1 mg/kg intravenous
# Protocol: After establishing the chemical stability and structural integrity of ZIF-8 encapsulated insulin, the biological activity of ZIF-8 encapsulated insulin was assessed by measuring the effectiveness of ZIF-8 encapsulated insulin for treating hyperglycemia in streptozotocin-induced type 1 diabetic mice. […] The ZIF-8 encapsulated insulin was released by adding EDTA before injection. The blood glucose concentrations of mice in each group were then monitored for 12 h. […] Histological evaluation of the major organs of the mice at 5 days after intravenous injection of PBS or stabilized insulin. […] The ZIF-8 encapsulated insulin was released by adding EDTA before injection. Results are the mean±standard deviation (n=3). […] The partial loss of insulin bioactivity here could be attributed to the loss of structure integrity of insulin at elevated temperatures as confirmed by the aforementioned ELISA, CD and HPLC experiments.
# Mice were anesthetized with 2% isoflurane.
# [2] = Preservation of CA-125 spiked in fresh blood under temperature fluctuations and shipping; type: physicochemical; settings: plasma from spiked fresh blood, 20-fold diluted; 8 days 25/40° C. temperature cycles or 10 days shipping
# Protocol: The applicability of this technique was assessed to preserve blood samples drawn in resource-limited settings. Unlike serum and plasma, in some embodiments the presence of a large quantity of whole cells (red and white blood cells and platelets) in blood affects ZIF-8 encapsulation of target protein biomarkers. Considering that in some embodiments ZIF-8 also forms a thick layer on cell surfaces56 and lead to incomplete encapsulation or preservation of target protein biomarkers, it is important to remove blood cells through centrifugation before ZIF-8 encapsulation of protein biomarkers. Unfortunately, centrifuge is typically inaccessible in resource-limited settings considering that conventional systems are bulky, expensive and electrically-powered. A hand-powered centrifuge was implemented that was able to separate plasma from whole blood within 10 minutes for subsequent ZIF-8 encapsulation (FIG. 19A). In order to mimic fresh whole blood samples from ovarian cancer patients, four different concentrations of CA-125 within pathological-relevant range from 25 ng/ml-25 μg/ml were spiked into fresh blood from healthy volunteers.58-59 Then the plasma samples (heparin-anticoagulated) were separated from blood and diluted 20-fold for ZIF-8 encapsulation. To assess the preservation efficacy of this approach under unregulated conditions, two sets of experiments were devised. […]
# [3] = Preservation of CA-125 spiked in serum/plasma dried on paper (ELISA); type: physicochemical
# Description: Further attention was given to blood (and components serum and plasma), the most common biospecimens in biological and clinical studies. Compared to urine, serum or plasma represents a more complex biological matrix due to the presence of large amount of various proteins such as albumin, globulins and fibrinogen. Before proceeding to assess the preservation of specific protein biomarker, it was confirmed that different types of proteins are extracted from the paper substrates containing dried serum with or without ZIF-8 encapsulation using sodium dodecyl sulfate-polyacrylamide gel electrophoresis (SDS-PAGE), indicating the potential of this technique in preserving multiple protein biomarkers simultaneously in serum or plasma (FIG. 16). […] Lane a, c and e are corresponding to eluate of volunteer #1, #2 and #3 serum without ZIF-8 encapsulation, respectively. Lane b, d and f are corresponding to eluate of volunteer #1, #2 and #3 serum with ZIF-8 encapsulation, respectively. CA-125, a serum biomarker for ovarian cancer, was used as the model protein and spiked into serum from healthy people. Considering extremely high concentration of serum proteins, the serum was first diluted (5-, 10- or 20-fold) before spiking CA-125 and adding ZIF-8 precursors to ensure ZIF-8 formation and more complete encapsulation. The CA-125 spiked serum samples, both with and without ZIF-8 encapsulation, were dried on paper and stored at 40° C. for 1 week. […] The poor preservation of CA-125 from 5- and 10-fold diluted serum was due to the incomplete ZIF-8 formation and encapsulation (FIG. 18). The encapsulation efficiency was calculated by subtracting the remaining CA-125 amount in the supernatant after encapsulation and centrifugation (concentration measured by ELISA) from the total CA-125 amount. […] Subsequently, CA-125 was spiked into three different matrices that represent typical blood-derived biospecimens (serum, heparin-anticoagulated plasma and EDTA-anticoagulated plasma from healthy people with 20-fold dilution), dried on paper substrates with and without ZIF-8 encapsulation, and subsequently stored at 25, 40, or 60° C. for different durations of time. CA-125 concentration in the eluate was quantified using sandwich ELISA. […] (FIG. 17D-F). FIGS. 17D-F show preservation efficacy of CA-125 spiked in serum, heparin-plasma or EDTA-plasma on paper card at 25, 40 or 60° C. for different durations.
# Sample preparation. NGAL-spiked artificial urine (50 μg/ml of NGAL, 25 μl) or patient urine (25 μl) was first mixed with 2-methylimidazole aqueous solution (12.5 μl) and then zinc acetate dihydrate aqueous solution (12.5 μl). The final concentrations of 2-methylimidazole after mixing were 320 mM, 160 mM, 80 mM and 40 mM. […]
# [4] = Circular dichroism of insulin secondary structure; type: physicochemical
# Protocol: To further confirm that ZIF-8 encapsulation preserves the insulin structure, circular dichroism (CD) spectroscopy was employed to characterize the secondary structure of insulin with and without ZIF-8 encapsulation after 1 week incubation at 40° C. (FIG. 26D). […] Inset: Secondary structure content of the three types of insulin obtained from the CD spectra. […] FIG. 30 discloses the following: Left: CD spectra of pristine insulin prior to agitation, released insulin from ZIF-8 encapsulation after 48 h agitation at 200 rpm and insulin without ZIF-8 encapsulation after 48 h agitation at 200 rpm; Right: secondary structure content of the three types of insulin obtained from the CD spectra. […] FIG. 31 discloses the following: Left: CD spectra of pristine insulin prior to exposure to ethyl acetate, released insulin from ZIF-8 encapsulation after exposure to ethyl acetate for 6 h and insulin without ZIF-8 encapsulation after exposure to ethyl acetate for 6 h; and, right: secondary structure content of the three types of insulin obtained from the CD spectra. […]
# Circular dichroism (CD) spectroscopy. […] The insulin recovered from various treatments was quantified by BCA assay and diluted to 100 μg/mL in PBS. The secondary structures of insulin (α-helical content, β-sheet content) were analyzed using CDPro software from CD spectra.
# [5] = test system: STZ-induced type 1 diabetic mice; settings: mouse, in vivo
# Protocol: STZ-induced male C57BL/6 (6-10 weeks) type 1 diabetic mice were purchased from Jackson Laboratory (USA). The blood glucose levels of mice were tested 1 day before administration by collecting blood (˜3 μL) from the tail vein and measuring using the Clarity GL2Plus glucose monitor (VWR, USA). The mice were randomly divided into four groups (3 mice each group) and intravenously injected via lateral tail vein with PBS solution, insulin stored at −20° C., ZIF-8 preserved insulin (dissociated by EDTA) and insulin alone stored at 40° C. for 1 week, respectively. The insulin dose for each mouse was 1 mg/kg (125 μg/mL, ˜200 μL). The blood glucose level was measured from tail vein blood samples (˜3 μL) of mice at different time points (at 10, 20, 40, and 60 min, and once per hour afterward for the first 12 h in the day of administration). Mice were anesthetized with 2% isoflurane. The mice treated with ZIF-8 preserved insulin and PBS were sacrificed after 5 days administration, and major organs were collected and sliced for haematoxylin and eosin (H&E) staining.
# [6] = Release of insulin from ZIF-8 encapsulation by EDTA; type: physicochemical; settings: 30 mM zinc acetate with 120 mM 2-methylimidazole
# Description: Elevated temperature is the primary detrimental condition during insulin transport and storage, an issue likely to be exacerbated by the increasing epidemic of diabetes in the developing countries, where refrigeration or “cold chain” facilities are not guaranteed. At high temperatures, insulin undergoes both physical (such as unfolding, non-native aggregation and fibrillation) and chemical degradations (such as deamidation, disulfide destruction and reshuffling). […] After 1 week, the ZIF-8 encapsulated insulin was released by adding ethylenediaminetetraacetic acid (EDTA) to dissociate the ZIF-8 crystals by breaking the coordination bonds between zinc and 2-methylimidazole (FIG. 25). The released insulin and unencapsulated insulin were then quantified by ELISA. The preservation efficacy (insulin recovery %) was calculated by comparing the recovered amount of insulin to the insulin amount prior to incubation. […] Compared to the optimal precursor concentrations, the low insulin recovery upon using 10 mM zinc acetate with 40 mM 2-methylimidazole is attributed to the incomplete encapsulation of insulin (FIG. 24). […] The insulin amount in the solution was measured by ELISA and compared with total insulin amount before encapsulation. […]
substance,measurement,setting,value
"Insulin at −20° C.: unencapsulated insulin solution stored frozen at −20° C., the gold standard control",time blood glucose maintained in the normoglycemic range,[1],4 h
same,blood glucose after return to hyperglycemic range,[1]; within 12 h,~550 mg/dL
cancer antigen 125 [CA-125],CA-125 preservation,[2],50-60%
same,CA-125 preservation,"[3]; 20-fold diluted serum, with ZIF-8 encapsulation, 40° C., one week",~90%
same,CA-125 preservation,"[3]; serum, heparin-plasma and EDTA-plasma (20-fold dilution), 25° C., 4 weeks",~50%
same,CA-125 preservation,"[3]; serum, heparin-plasma and EDTA-plasma (20-fold dilution), 40° C., 4 weeks",~40%
same,CA-125 preservation,"[3]; serum, heparin-plasma and EDTA-plasma (20-fold dilution), 60° C., 4 weeks",~30%
unencapsulated insulin: human recombinant insulin in solution without ZIF-8 encapsulation,effect on blood glucose concentrations,[1],only moderately decreased glucose concentrations
same,secondary structure (CD spectrum),"[4]; 1 week incubation at 40° C., versus pristine insulin",an increase in the β-sheet content along with the decrease in the α-helical content
same,secondary structure (CD spectrum),[4]; after mechanical agitation (48 h at 200 rpm),from an overall rich helical to dominant β-sheet structure
same,Mice weight Before,[5],22.0 ± 0.2 g
same,release of insulin from ZIF-8 by EDTA,[6],~90%

# Reference: US11856945B2, “Methods and systems for preparing and preserving a biological sample” (Washington University, priority 2017, dated 2024)
